From patent US20180140673A1 (Novo Nordisk, published 2018) come the findings set out here.

Positions count from the first letter of the chain named. Where two headings read alike, the source gives them in different places.

What all share (experiment): cell-based or functional assay
Experiment [1] addresses T1, FGFR1c receptor/BKL complex on differentiated mouse 3T3-L1 adipocytes (mouse, UniProt P16092 22-822; Q99N32 1-1043).
Experiment [2] addresses T2, FGF receptor/BKL complex on HEK293 cells overexpressing human beta-klotho (BKL) (human, UniProt Q86Z14 1-1044).
The target in experiment [3] is T2, FGF receptor/BKL complex on HEK293 …. The source holds these as a separate data set.
The target in experiment [4] is T1, FGFR1c receptor/BKL complex on …. This is another data set of the same source.
For experiment [5], the target named is T2, FGF receptor/BKL complex on HEK293 …. This is another data set of the same source.

T2 sequence (Q86Z14 whole entry, one chain of several): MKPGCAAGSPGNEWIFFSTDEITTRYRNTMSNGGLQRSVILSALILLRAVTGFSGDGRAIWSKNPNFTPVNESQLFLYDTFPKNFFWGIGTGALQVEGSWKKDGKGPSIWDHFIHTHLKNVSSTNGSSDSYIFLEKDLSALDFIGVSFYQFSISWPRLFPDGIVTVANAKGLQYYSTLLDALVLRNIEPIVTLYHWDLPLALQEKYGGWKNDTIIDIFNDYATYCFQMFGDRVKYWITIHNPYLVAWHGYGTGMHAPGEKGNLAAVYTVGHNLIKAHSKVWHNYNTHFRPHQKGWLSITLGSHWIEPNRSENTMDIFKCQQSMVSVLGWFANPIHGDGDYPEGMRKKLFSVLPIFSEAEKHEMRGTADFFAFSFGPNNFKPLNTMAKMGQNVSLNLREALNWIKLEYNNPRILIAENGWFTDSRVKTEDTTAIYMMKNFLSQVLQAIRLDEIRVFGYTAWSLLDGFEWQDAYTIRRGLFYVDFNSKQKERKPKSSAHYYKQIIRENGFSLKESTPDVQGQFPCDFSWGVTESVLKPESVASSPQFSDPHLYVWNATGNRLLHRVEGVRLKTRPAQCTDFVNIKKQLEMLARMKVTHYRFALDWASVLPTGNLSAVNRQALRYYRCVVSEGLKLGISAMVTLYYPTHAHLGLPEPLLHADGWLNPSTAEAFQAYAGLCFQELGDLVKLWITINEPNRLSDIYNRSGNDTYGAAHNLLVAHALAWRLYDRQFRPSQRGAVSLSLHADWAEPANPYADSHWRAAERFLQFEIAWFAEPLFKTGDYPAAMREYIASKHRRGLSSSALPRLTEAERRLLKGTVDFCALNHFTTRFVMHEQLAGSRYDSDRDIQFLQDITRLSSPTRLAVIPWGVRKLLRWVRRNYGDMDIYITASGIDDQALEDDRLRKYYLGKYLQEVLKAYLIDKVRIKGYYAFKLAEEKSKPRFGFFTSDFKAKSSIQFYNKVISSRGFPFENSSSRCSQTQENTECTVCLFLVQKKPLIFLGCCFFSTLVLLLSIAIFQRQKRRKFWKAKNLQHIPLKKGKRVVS
T1 sequence (P16092 22-822, chain 1 of 2): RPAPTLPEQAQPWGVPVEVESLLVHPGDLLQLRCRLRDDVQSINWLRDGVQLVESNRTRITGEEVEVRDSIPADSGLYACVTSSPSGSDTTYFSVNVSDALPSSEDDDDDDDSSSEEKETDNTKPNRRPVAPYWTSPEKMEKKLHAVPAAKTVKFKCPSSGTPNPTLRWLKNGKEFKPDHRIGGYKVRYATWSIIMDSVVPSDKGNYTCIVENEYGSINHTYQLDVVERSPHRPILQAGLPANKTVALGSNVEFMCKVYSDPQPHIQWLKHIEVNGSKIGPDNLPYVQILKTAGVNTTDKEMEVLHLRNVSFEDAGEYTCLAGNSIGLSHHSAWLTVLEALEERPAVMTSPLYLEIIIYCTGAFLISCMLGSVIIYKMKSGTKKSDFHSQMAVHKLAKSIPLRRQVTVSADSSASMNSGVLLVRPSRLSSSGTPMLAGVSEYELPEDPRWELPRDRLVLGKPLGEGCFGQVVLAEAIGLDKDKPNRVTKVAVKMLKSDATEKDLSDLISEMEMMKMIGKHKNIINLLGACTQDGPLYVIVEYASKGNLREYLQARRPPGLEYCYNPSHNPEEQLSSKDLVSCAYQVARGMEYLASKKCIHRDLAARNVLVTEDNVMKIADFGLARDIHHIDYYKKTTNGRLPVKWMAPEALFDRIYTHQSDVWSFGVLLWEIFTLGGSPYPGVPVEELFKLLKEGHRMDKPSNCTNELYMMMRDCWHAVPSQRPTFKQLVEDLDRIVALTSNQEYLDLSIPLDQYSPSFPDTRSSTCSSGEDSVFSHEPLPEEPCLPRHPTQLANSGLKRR
T1 sequence (Q99N32 whole entry, chain 2 of 2): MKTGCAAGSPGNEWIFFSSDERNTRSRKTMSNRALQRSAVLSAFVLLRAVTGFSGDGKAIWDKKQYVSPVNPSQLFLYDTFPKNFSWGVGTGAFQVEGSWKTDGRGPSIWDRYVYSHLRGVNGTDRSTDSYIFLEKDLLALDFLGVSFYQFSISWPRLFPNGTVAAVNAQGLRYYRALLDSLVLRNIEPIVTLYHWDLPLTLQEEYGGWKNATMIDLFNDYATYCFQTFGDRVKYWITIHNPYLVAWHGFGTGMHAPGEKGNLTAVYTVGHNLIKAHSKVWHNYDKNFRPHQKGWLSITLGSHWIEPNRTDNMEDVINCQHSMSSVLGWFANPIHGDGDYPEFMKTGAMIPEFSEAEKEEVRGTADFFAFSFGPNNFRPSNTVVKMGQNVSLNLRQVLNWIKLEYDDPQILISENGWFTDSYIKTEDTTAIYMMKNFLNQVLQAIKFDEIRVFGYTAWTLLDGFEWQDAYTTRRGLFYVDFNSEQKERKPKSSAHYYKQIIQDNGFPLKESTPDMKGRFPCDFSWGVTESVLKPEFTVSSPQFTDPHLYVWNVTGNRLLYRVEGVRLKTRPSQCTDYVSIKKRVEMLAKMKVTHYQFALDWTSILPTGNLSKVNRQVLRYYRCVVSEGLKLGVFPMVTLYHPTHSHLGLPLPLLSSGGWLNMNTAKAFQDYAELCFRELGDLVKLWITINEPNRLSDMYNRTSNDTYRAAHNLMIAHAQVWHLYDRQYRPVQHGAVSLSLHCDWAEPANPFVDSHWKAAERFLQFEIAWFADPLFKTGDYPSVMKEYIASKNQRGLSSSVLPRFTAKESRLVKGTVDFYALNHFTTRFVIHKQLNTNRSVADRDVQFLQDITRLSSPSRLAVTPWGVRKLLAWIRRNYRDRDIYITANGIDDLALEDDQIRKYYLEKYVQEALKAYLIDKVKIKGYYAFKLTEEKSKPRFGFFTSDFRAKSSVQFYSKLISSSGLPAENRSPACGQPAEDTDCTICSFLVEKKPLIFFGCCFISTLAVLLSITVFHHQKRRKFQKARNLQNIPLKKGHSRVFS

B1: MetFGF21 (ligand)
chain: MHPIPDSSPLLQFGGQVRQRYLYTDDAQQTEAHLEIREDGTVGGAADQSPESLLQLKALKPGVIQILGVKTSRFLCQRPDGALYGSLHFDPEACSFRELLLEDGYNVYQSEAHGLPLHLPGNKSPHRDPAPRGPARFLPLPGLPPALPEPPGILAPQPPDVGSSDPLSMVGPSQGRSPSYAS
As for B1, in experiment [1], the “Glucose uptake EC50 (nM), 3T3-L1 adipocytes” value was 1.2 nM. Moreover, in experiment [2], the “EC50 (nM), pERK, HEK293/BKL cells” value was 1.8 nM.

B2: S{Beta-181}-[2-[2-[[2-[2-[2-[[2-[2-[2-[[(4S)-4-carboxy-4-(17-carboxyheptadecanoyl-amino)butanoyl]amino]ethoxy]ethoxy]acetyl]amino]ethoxy]ethoxy]acetyl]amino]-et … (ligand)
chain: B1 chain with S182C
modifications: Cys181 (numbering of mature human FGF21): side chain on the sulfur atom; protractor C18 diacid; reagent of Example 4.5
With B2, in experiment [3], the “EC50 (0.1% HSA) (nM), pERK, HEK293/BKL cells” value was determined as 71 nM and the “EC50 (nM), pERK, HEK293/BKL cells” value was found to be 16 nM. Also, the “Glucose uptake EC50 (nM), 3T3-L1 adipocytes” value in experiment [4] was determined as 37 nM.

B3: Ala[Gln121,Leu168,Cys171]FGF21 (ligand)
chain: B1 chain with M1A, N122Q, M169L, P172C
On to B3, for which the “EC50 (nM), pERK, HEK293/BKL cells” value in experiment [5] came out at 8 nM.
